Changes are numbered by the printed parent chain. Names and notes keep the numbering of the source.

For data set [1], the target named is T1, PDZD7 N-PDZ1ext (Mus musculus, UniProt E9Q9W7).
T1 construct: including the N-terminus of the protein (N-PDZ1ext construct; M1-E192); GST (followed by TEV site) (N, cleaved yes); made in house; host or cells: E. coli BL21 DE3
T1 sequence (E9Q9W7 1-192): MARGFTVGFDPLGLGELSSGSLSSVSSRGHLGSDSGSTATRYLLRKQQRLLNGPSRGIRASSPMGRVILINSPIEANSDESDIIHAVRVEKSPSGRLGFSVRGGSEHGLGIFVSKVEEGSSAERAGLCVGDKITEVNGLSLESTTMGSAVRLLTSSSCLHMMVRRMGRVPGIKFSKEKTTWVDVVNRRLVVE
The experiment in a line: NMR titration of N-PDZ1ext with ADGRV1 ligands. The format is binding, murine. On the procedure:
(§1) All experiments were recorded at 25°C on a Bruker 800 MHz spectrometer equipped with a triple resonance ^1H{^13C/^15N} cryoprobe. The ^1H, ^15 N and ^13C backbone resonances assignment of PDZ1ext was carried out using 3D HNCA, HNCACB, HNCO, HNCOCA experiments (Tris HCl buffer adjusted to pH 6). The 2D ^1H-^15N HSQC spectra used to compare PDZ1, PDZ1ext, PDZ2 and PDZ2ext were recorded in Tris HCl pH 7.5 (50 mM). The 2D ^1H-^15N HSQC spectra used to compare PDZ1ext, PDZ2ext and P1P2 were recorded in Phosphate Buffer pH 6.5 (50 mM). Titration experiments of PDZ1 (WT), PDZ1ext (WT) and PDZ1ext (G103R) against ADGRV1pbm peptide were performed in Tris HCl pH 7.5 (50 mM). Averaged Chemical Shifts Perturbations (CSP) were calculated as: Δδavg = ((Δδ(^1H))^2+(Δδ(^15N)*0.159)^2)^½. For the determination of dissociation constants (Kd) of each peptide/PDZ interaction, averaged CSP δavg was plotted as a function of the molar ratio (peptide/PDZ) for several peaks and fitted using nonlinear regression and assuming a simple complex formation model.
The P1P2 tandem of PDZD7 is preceded by 80 residues with no predicted secondary or tertiary structure, but which could contribute to the interaction with ADGRV1. […] We first aimed at identifying potential secondary structures in both PDZD7 N-terminal region and ADGRV1 cytoplasmic domain. To this end, we produced both an extended PDZ1ext construct, including the N-terminus of the protein (N-PDZ1ext construct; M1-E192) and the whole ADGRV1 cytoplasmic domain of 152 residues.
On the overlay of PDZ1ext and N-PDZ1ext HSQC spectra, there is no significant chemical shift changes on PDZ1ext due to the presence of the N-terminal region (CSPs <0.04 ppm). […] We used the entire cytoplasmic domain of ADGRV1 as partner of PDZD7 in NMR and fluorescence titrations experiments. […] Finally, we measured Kd values in the few micromolar range between the tandem P1P2 and the whole cytoplasmic domain and the last 13 residues of ADGRV1 by fluorescence experiments.

In data set [2] the target is T2, PDZD7 PDZ1ext (81-192) (Mus musculus, UniProt E9Q9W7).
T2 construct: PDZ1 (81-167), PDZ1ext (81-192); GST (followed by TEV site) (N, cleaved yes); made in house; host or cells: E. coli BL21 DE3
T2 sequence (E9Q9W7 81-192): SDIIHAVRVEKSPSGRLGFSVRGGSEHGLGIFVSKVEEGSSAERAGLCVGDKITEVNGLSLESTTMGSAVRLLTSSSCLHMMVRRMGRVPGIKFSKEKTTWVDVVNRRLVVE
The experiment in a line: NMR titration of PDZ1ext with ADGRV1 ligands. The format is binding, murine. The note with it: NMR titration, 25°C; apparent Kd, SD over at least ten shifting peaks; ligand whole cytoplasmic domain; read-out: Kd (Cyto). On the procedure: as §1, with “For the determination of dissociation constants (Kd) of each peptide/PDZ interaction, averaged CSP δavg was plotted as a function of the molar ratio (peptide/PDZ) for several peaks and fitted using nonlinear regression and assuming a simple complex formation model.” left out
We monitored the interaction between PDZD7 constructs and a peptide (ADGRV1pbm) corresponding to the last 13 residues of ADGRV1, encompassing its PBM (sequence VELRRIPIADTHL-COOH; PBM underlined). We measured apparent Kd values of our constructs towards ADGRV1pbm using several biophysical methods (NMR, fluorescence, MicroScale Thermophoresis (MST)) (Table 1; Supplementary Figure S3–S5). […]

Data set [3] relates to ADGRV1 β subunit. The experiment in a line: Pull-down of ADGRV1 β subunit by full-length PDZD7-GFP from HeLa cell lysates. The format is binding, murine. The note with it: PDZD7-GFP bait, anti-GFP beads, 4°C 1 h, western blot, vs no bait. Here is the method:
(§2) HeLa cells were maintained in Dulbecco’s modified Eagle’s medium (DMEM) containing 10% fetal calf serum (FCS). PDZD7 constructs correspond to the full-length murine sequence in fusion with a N-terminal strep tag and a C-terminal GFP, wild-type or carrying G103R/G228R variants, cloned in a PMT3 vector. The ADGRV1 construct corresponds to the murine β subunit of the receptor (5884-6298) cloned in a pRK5 vector. Plasmids were transfected in separate HeLa cultures using 25 μg (PDZD7) and 10 μg (ADGRV1) of DNA per 10 cm dish using TurboFect™ Transfection Reagent (ThermoFisher Scientific) at 3 μl per μg of transfected DNA. Mixes were prepared in volumes of 1 ml/plate (in DMEM), vortexed and incubated up to 30 min at room temperature, cell media were renewed before transfection. After drop by drop addition of the transfection mix, cells were maintained at 37°C for 14 h for protein expression. Cells were dissociated using Gibco™ Trypsine-EDTA (0,05%), subsequently inactivated by addition of DMEM containing 10% FCS. Cells were counted, pelleted and resuspended at similar concentrations in PBS Tween 0.01%, Dodécyl-β-D-maltoside (DDM) 0.1% containing anti-proteases (buffer). Benzonase (Sigma) was added before sonication of the cells (40 mA amplitude, 10 pulses of 12 s with 18 s intervals, in ice). An identical volume of ADGRV1 β transfected cell lysate was mixed to either PDZD7 WT, G103R or G228R transfected cell lysates. PDZ proteins have different expression levels, meaning that different amounts of sample are needed to saturate the dynabeads with the PDZ proteins. Pull down experiments have been performed several times allowing us to estimate the yield of expression of each PDZ construct for a given amount of cells. […] Target proteins were detected using mouse α-GFP (LivingColors™ JL-8, Takara) and rabbit α-ADGRV1 (custom, raised against the cytoplasmic domain) antibodies (1/2000 in 5% milk TBST), as well as secondary α-mouse and α-rabbit IgG antibodies coupled to HRP (1/2000 in 5% milk TBST). […]
A general note: Immunoblotting shows a protein as a band on a membrane.

Data set [4] in a line: Degradation of PDZD7-GFP variants expressed in HeLa cells. The note with it: western blot, compared to the wild-type. Here is the method:
as §2, with “Cells were dissociated using Gibco™ Trypsine-EDTA (0,05%), subsequently inactivated by addition of DMEM containing 10% FCS.” left out, “(buffer).” for “(buffer). Benzonase (Sigma) was added before sonication of the cells (40 mA amplitude, 10 pulses of 12 s with 18 s intervals, in ice). An identical volume of ADGRV1 β transfected cell lysate was mixed to either PDZD7 WT, G103R or G228R transfected cell lysates. PDZ proteins have different expression levels, meaning that different amounts of sample are needed to saturate the dynabeads with the PDZ proteins. Pull down experiments have been performed several times allowing us to estimate the yield of expression of each PDZ construct for a given amount of cells.”

B1: ADGRV1 whole cytoplasmic domain: whole ADGRV1 cytoplasmic domain of 152 residues, murine long isoform (CCDS36737; 6149-6298) (protein)
chain: HNQTCCPMKASYTVEMNGHPGPSTAFFTPGSGIPPAGEINKSTQNLINAMEEVPSDWERSSFQQTSQASPDLKTSPQNGASFPSSGGYGPGSLIADEESQEFDDLIFALKTGAGLSVSDNESGQGSQEGGTLTDSQIVELRRIPIADTHL
modifications: left off: Histidine tag, N-terminal, cleaved
Turning to B1, the Kd was determined as 241 ± 115 µM in data set [1] (NMR titration, 25°C, SD over at least ten shifting peaks, ligand whole cytoplasmic domain, read-out: Kd (Cyto)) and 41 ± 14 µM in data set [2]. This molecule yielded a decrease in affinity in data set [1] (due to the long unfolded N-terminus region, N-PDZ1ext vs PDZ1ext) of 6 fold.

B2: G103R: full-length murine PDZD7-GFP carrying G103R variant (protein, UniProt E9Q9W7 1-1021, looked up, variant G103R)
chain: MARGFTVGFDPLGLGELSSGSLSSVSSRGHLGSDSGSTATRYLLRKQQRLLNGPSRGIRASSPMGRVILINSPIEANSDESDIIHAVRVEKSPSGRLGFSVRRGSEHGLGIFVSKVEEGSSAERAGLCVGDKITEVNGLSLESTTMGSAVRLLTSSSCLHMMVRRMGRVPGIKFSKEKTTWVDVVNRRLVVEKCSSTPSDRSSEDGVRRIVHLYTTSDDFCLGFNIRGGKEFGLGIYVSKVDHGGLAEENGIKVGDQVLAANGVRFDDISHSQAVEVLKGQTHIMLTIKETGRYPAYKEMVSEYCWLDRLSNGVLQQLSPASESSSSVSSYASSAPCSSGSLPSDRMDVCLGPEEPTSHGPGWGRADTAMQTEPDLDSRVETWCSVRPTVILRDTAIRSDGPSSTRHLDSALSESPKTALLLALSRPRTPITRSQSHLTLWEEKKQRKKEKSGSSGEKGALQRSKTLMNLFFKGGRQGRPAGDGHREAWTLDSRSPTKVRPRLDLEKAGSVGPVQKFVTWRLRRDRERGRALLSARSGSPSGQAPTVNEQVQAWESRRPLIQDLARRLLTDDEVLAVTRHCSRYVHEGGVEDLVRPLLAILDRPTKLLLLRDIRSVVAPTDLGRFDSMVMPVELEAFEALKSRAVGPSALRPTRQDTPPKRHLITPVPDSRGGFYLLPVNSSEDEDGEIREKLGVLKVSLGASAPHHKGIPPLQDVPVDAFSLRRGACAPPPQPPPVAPRPPRPNWLLTEPLSREDTQQNQSQTPAQSCSRSRSRSRSRSHSRGQGKSPGRRRSPSPAPIATAATANGRYHRPRKARPLLPRLLDGQVAKVGARQGPLENGRIAEEAVGNVSTGALRTITLSKMKQSLGISISGGIESKVQPMVKIEKIFPGGAAFLCGDLQAGFELVAVDGESLEQVTHQRAVDTIRRAYRNKAREPMELVVRVPGPGLLPLASDLRVVKDQSLAPDCPSALGPVDDARILTQLPPPEARQLQQSLSSALKVPQSIPKLSPILKDPHDPS
modifications: full-length C-terminal GFP fusion
notes: full-length murine PDZD7-GFP carrying G103R variant
For the molecule B2, the “binding of ADGRV1 β subunit (pull-down)” value in data set [3] is reported as “a decrease of ADGRV1 quantity bound to the beads was observed in comparison with wild-type PDZD7, similar to the experiment performed without bait”. The degradation result in data set [4] is listed as “higher tendency for degradation”.

B3: G228R: full-length murine PDZD7-GFP carrying G228R variant (protein, UniProt E9Q9W7 1-1021, looked up, variant G228R)
chain: B2 chain with R103G, G228R
modifications: full-length C-terminal GFP fusion
notes: full-length murine PDZD7-GFP carrying G228R variant
Consider B3, for which the “binding of ADGRV1 β subunit (pull-down)” value in data set [3] is given as “a decrease of ADGRV1 quantity bound to the beads was observed in comparison with wild-type PDZD7, similar to the experiment performed without bait”. Further, the degradation result in data set [4] is “higher tendency for degradation”.
